Measurements reported in US10538583 (dated 2020).

How the values were obtained:
human ApoC3 [1] = target: human ApoC3 (human); test: SPR pH 5.5
human ApoC3 [2] = target: human ApoC3 (human); test: SPR pH 7.4
human ApoC3 [3] = target: human ApoC3 (human); test: SPR pH 5.5, antibody immobilized
human ApoC3 [4] = target: human ApoC3 (human); test: SPR pH 7.4, antibody immobilized

Sequence of human ApoC3 (human) (chain, as listed by the source): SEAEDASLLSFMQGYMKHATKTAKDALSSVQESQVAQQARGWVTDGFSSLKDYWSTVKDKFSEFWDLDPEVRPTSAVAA

| Kd (human ApoC3 [1]) | Kd (human ApoC3 [2]) | Kd (human ApoC3 [3]) | Kd (human ApoC3 [4]) | Binder |
| --- | --- | --- | --- | --- |
| 0.283 nM | 0.0552 nM | 290 nM | 103 nM | mAb2 (antibody, V domains shown) VH: QLVESGGGLVQPGGSLRLSCAASGFTFGTYSMRWVRQVPGKGLEWVSSIHTEGGGTAYRDSVKGRFTISRDNAKNTLYLQMNSLRAEDTAIYYCVIAGYSDWGQGTLVTVSS VL: DIVMTQSPLSLPVTPGESASISCKTSQGLVHSDGKTYFYWFLQKPGQSPQQLIYQVSNRASGVPDRFSGSGSGTDFTLKISRVKAEDAGVYYCAHGTYYPHTFGQGTRLEIK |
| 0.749 nM | 0.102 nM | 242 nM | 241 nM | mAb8 (antibody, V domains shown) VH: QLVESGGGLVQPGGSLRLSCAASGFTFSTYSMRWVRQAPGKGLEWVSSIHTDAGGTAYRDSVKGRFTISRDNAKNTLYLQMNNLRAEDTAVYYCVIAGYSDWGQGTLVTVSS VL: DIVMTQSPLSLSVVPGEPASISCKTSQGLVHSDGKTYFYWFLQKPGQSPQQLIYQVSNRASGVPDRFSGSGSGTDFTLKISRVEAEDVGVYYCAHGTYYPHTFGQGTRLEIK |
| 0.347 nM | 0.0599 nM | 861 nM | 165 nM | mAb6 (antibody, V domains shown) VH: QLVESGGGLVQPGGSLRLSCAASGFTFGTYSMRWVRQAPGKGLEWVSSIHTEGGGTAYRDSVKGRFTISRDNAKNTLYLQMNSLRAEDTAVYYCVIAGYSDWGQGTLVTVSS VL: DIVMTQSPLSLPVTPGESASISCKTSQGLVHSDGKTYFYWFLQKPGQSPQQLIYQVSNRASGVPDRFSGSGSGTDFTLKISRVKAEDAGVYYCAHGTYYPHTFGQGTRLEIK |
| 9.44 nM | 0.586 nM | – | 1340 nM | mAb20 (antibody, V domains shown) VH: QLVESGGGLVQPGGSLRLSCAASGFTFSTYSMRWVRQAPGKGLEWVSSIHTDAGGTAYRDSVKGRFTISRDNAKNTLYLQMNNLRPEDTAVYYCVIAGYSDWGQGTLVTVSS VL: DIVMTQSPGSLSVTPGEPASISCKTSQGLVHSGGKTYFYWFLQKPGQSPQQLIYQVSNRASGVPDRFTGSGSGTDFTLKISGVEAEDAGVYYCAHGTYYPHTFGQGTRLEIK |
| 0.331 nM | 0.173 nM | 503 nM | 129 nM | mAb11 (antibody, V domains shown) VH: QLVESGGGLVQPGGSLRLSCAASGFTFSTYSMRWVRQVPGKGLEWVSSIHTEGGGTAYRDSVKGRFTISRDNAKNTLYLQMNNLRAEDTAVYYCVIAGYSDWGQGTLVTVSS VL: DIVMTQSPLSLSVTPGEPASISCKTSQGLVHSDGKTYFYWFLQKPGQSPQQLIYQVSNRASGVPDRFSGSGSGTDFTLKISRVEAEDVGVYYCAHGTYYPHTFGQGTRLEIK |
| 5.56 nM | 4.19 nM | – | 1000 nM | mAb13 (antibody, V domains shown) VH: QLLESGGGLVQPGGSLRLSCAASGFTFSTYSMRWVRQVPGKGLEWVSSIHTEGGGTAYRDSVKGRFTISRDNSKNTLYLQMNSLRAEDTAVYYCVIAGYSDWGQGTLVTVSS VL: DIVMTQSPLSLPVTPGEPASISCKTSQGLVHSDGKTYFYWYLQKPGQSPQLLIYQVSNRASGVPDRFSGSGSGTDFTLKISRVEAEDVGVYYCAHGTYYPHTFGQGTRLEIK |
| 0.345 nM | 0.148 nM | 408 nM | 181 nM | mAb5 (antibody, V domains shown) VH: QLVESGGGLVQPGGSLRLSCAASGFTFGTYSMRWVRQAPGKGLEWVSSIHTEGGGTAYRDSVKGRFTISRDNAKNTLYLQMNSLRAEDTAVYYCVIAGYSDWGQGTLVTVSS VL: DIVMTQSPLSLPVTPGESASISCKTSQGLVHSDGKTYFYWFLQKPGQSPQQLIYQVSNRASGVPDRFTGSGSGTDFTLKISRVKAEDAGVYYCAHGTYYPHTFGQGTRLEIK |
| 0.27 nM | 0.0956 nM | 334 nM | 189 nM | mAb10 (antibody, V domains shown) VH: QLVESGGGLVQPGGSLRLSCAASGFTFSTYSMRWVRQVPGKGLEWVSSIHTEGGGTAYRDSVKGRFTISRDNAKNTLYLQMNNLRAEDTAVYYCVIAGYSDWGQGTLVTVSS VL: DIVMTQSPLSLSVVPGEPASISCKTSQGLVHSDGKTYFYWFLQKPGQSPQQLIYQVSNRASGVPDRFSGSGSGTDFTLKISRVEAEDVGVYYCAHGTYYPHTFGQGTRLEIK |
| 7.44 nM | 0.687 nM | – | 596 nM | mAb16 (antibody, V domains shown) VH: QLVESGGGLVQPGGSLRLSCAASGFTFGTYSMRWVRQAPGKGLEWVSSIHTEAGGTAYRDSVKGRFTISRDNAKNTLYLQMNNLKAEDTAIYYCVIAGYSDWGQGTQVTVSS VL: DIVMTQSPLSLPVTPGESASISCKTSQGLVHSGGKTYFYWFLQKPGQSPQQLIYQVSNRASGVPDRFTGSGSGTDFTLKISRVEAEDAGVYYCAHGTYYPHTFGSGTRLEIK |
| 0.759 nM | 0.149 nM | 541 nM | 232 nM | mAb9 (antibody, V domains shown) VH: QLVESGGGLVQPGGSLRLSCAASGFTFSTYSMRWVRQAPGKGLEWVSSIHTDAGGTAYRDSVKGRFTISRDNAKNTLYLQMNNLRAEDTAVYYCVIAGYSDWGQGTLVTVSS VL: DIVMTQSPLSLSVTPGEPASISCKTSQGLVHSDGKTYFYWFLQKPGQSPQQLIYQVSNRASGVPDRFSGSGSGTDFTLKISRVEAEDVGVYYCAHGTYYPHTFGQGTRLEIK |
| 0.351 nM | 0.11 nM | 323 nM | 174 nM | mAb3 (antibody, V domains shown) VH: QLVESGGGLVQPGGSLRLSCAASGFTFGTYSMRWVRQAPGKGLEWVSSIHTEGGGTAYRDSVKGRFTISRDNAKNTLYLQMNSLRAEDTAIYYCVIAGYSDWGQGTLVTVSS VL: DIVMTQSPLSLPVTPGESASISCKTSQGLVHSDGKTYFYWFLQKPGQSPQQLIYQVSNRASGVPDRFTGSGSGTDFTLKISRVKAEDAGVYYCAHGTYYPHTFGQGTRLEIK |
| 8.62 nM | 1.33 nM | – | 509 nM | mAb18 (antibody, V domains shown) VH: QLVESGGGLVQPGGSLRLSCAASGFTFSTYSMRWVRQAPGKGLEWVSSIHTEAGGTAYRDSVKGRFTISRDNAKNTLYLQMNNLRAEDTAVYYCVIAGYSDWGQGTLVTVSS VL: DIVMTQSPLSLPVTPGEPASISCKTSQGLVHSGGKTYFYWFLQKPGQSPQQLIYQVSNRASGVPDRFTGSGSGTDFTLKISRVEAEDAGVYYCAHGTYYPHTFGQGTRLEIK |
| 4.89 nM | 0.0928 nM | 583 nM | 247 nM | mAb7 (antibody, V domains shown) VH: QLVESGGGLVQPGGSLRLSCAASGFTFSTYSMRWVRQAPGKGLEWVSSIHTGGGGTAYRDSVKGRFTISRDNAKNTLYLQMNNLRAEDTAIYYCVIAGYSDWGQGTLVTVSS VL: DIVMTQSPLSLPVTPGESASISCKTSQGLVHSDGKTYFYWFLQKPGQSPQQLIYQVSNRASGVPDRFSGSGSGTDFTLKISRVKAEDAGVYYCAHGTYYPHTFGQGTRLEIK |
| 21.3 nM | 2.96 nM | – | 1760 nM | mAb14 (antibody, V domains shown) VH: QLLESGGGLVQPGGSLRLSCAASGFTFGTYSMRWVRQVPGKGLEWVSSIHTEGGGTAYRDSVKGRFTISRDNSKNTLYLQMNSLRAEDTAVYYCVIAGYSDWGQGTLVTVSS VL: DIVMTQSPLSLPVTPGEPASISCKTSQGLVHSDGKTYFYWYLQKPGQSPQLLIYQVSNRASGVPDRFSGSGSGTDFTLKISRVEAEDVGVYYCAHGTYYPHTFGQGTRLEIK |
| 0.374 nM | 0.00464 nM | 432 nM | 124 nM | mAb4 (antibody, V domains shown) VH: QLVESGGGLVQPGGSLRLSCAASGFTFGTYSMRWVRQAPGKGLEWVSSIHTEGGGTAYRDSVKGRFTISRDNAKNTLYLQMNSLRAEDTAIYYCVIAGYSDWGQGTLVTVSS VL: DIVMTQSPLSLPVTPGESASISCKTSQGLVHSDGKTYFYWFLQKPGQSPQQLIYQVSNRASGVPDRFSGSGSGTDFTLKISRVKAEDAGVYYCAHGTYYPHTFGQGTRLEIK |
| 0.417 nM | 0.0453 nM | 157 nM | 35.5 nM | mAb19 (antibody, V domains shown) VH: QLVESGGGLVQPGGSLRLSCAASGFTFSTYSMRWVRQAPGKGLEWVSSIHTDAGGTAYRDSVKGRFTISRDNAKNTLYLQMNNLRPEDTAVYYCVIAGYSDWGQGTLVTVSS VL: DIVMTQSPGSLSVTPGEPASISCKTSQGLVHSGGKTYFYWFLQKPGQSPQQLIYQVSNRASGVPDRFTGSGSGTDFTLKISGVEAEDAGVYYCAQGTYYPHTFGQGTRLEIK |
| 0.237 nM | 0.0454 nM | 253 nM | 73.9 nM | mAb1 (antibody, V domains shown) VH: QLVESGGGLVQPGGSLRLSCAASGFTFGTYSMRWVRQVPGKGLEWVSSIHTEGGGTAYRDSVKGRFTISRDNAKNTLYLQMNSLRAEDTAIYYCVIAGYSDWGQGTLVTVSS VL: DIVMTQSPLSLPVTPGESASISCKTSQGLVHSDGKTYFYWFLQKPGQSPQQLIYQVSNRASGVPDRFTGSGSGTDFTLKISRVKAEDAGVYYCAHGTYYPHTFGQGTRLEIK |
| 0.342 nM | 0.0464 nM | 257 nM | 62.4 nM | mAb17 (antibody, V domains shown) VH: QLVESGGGLVQPGGSLRLSCAASGFTFSTYSMRWVRQAPGKGLEWVSSIHTEAGGTAYRDSVKGRFTISRDNAKNTLYLQMNNLRAEDTAVYYCVIAGYSDWGQGTLVTVSS VL: DIVMTQSPLSLPVTPGEPASISCKTSQGLVHSGGKTYFYWFLQKPGQSPQQLIYQVSNRASGVPDRFTGSGSGTDFTLKISRVEAEDAGVYYCAQGTYYPHTFGQGTRLEIK |
| 0.353 nM | 0.00538 nM | 86.2 nM | 34.7 nM | mAb15 (antibody, V domains shown) VH: QLVESGGGLVQPGGSLRLSCAASGFTFGTYSMRWVRQAPGKGLEWVSSIHTEAGGTAYRDSVKGRFTISRDNAKNTLYLQMNNLKAEDTAIYYCVIAGYSDWGQGTQVTVSS VL: DIVMTQSPLSLPVTPGESASISCKTSQGLVHSGGKTYFYWFLQKPGQSPQQLIYQVSNRASGVPDRFTGSGSGTDFTLKISRVEAEDAGVYYCAQGTYYPHTFGSGTRLEIK |
